Measurements as given in patent publication US20160185837A1 (Medimmune Limited, priority 2013, published 2016).

How the values were obtained:
Type in all cases: cell-based
[1] = biological target: T1, human glucagon receptor (GCGr) (Homo sapiens, UniProt P47871); assay: BSA-cAMP assay, cells expressing human glucagon receptor; settings: Batch 1, read-out: hGCGr cAMP activity EC50
T1 construct: expressed in transfected cells; host or cells: HEK293s or CHO cells
Experimental: (§1) One basic cAMP assays was performed, differing in the medium used for the assay, the “BSA-cAMP assay”:
(§2) BSA-based assay medium: 0.1% bovine serum albumin (BSA) in
(§3) In certain aspects, the assay can also be carried out in medium supplemented with serum albumin that corresponds to the receptor being tested, e.g., human serum albumin for testing cAMP activity at hGIPr or hGLP-1r, rat serum albumin for testing cAMP activity at rGIPr or rGLP-1r, and so on. […] All sample dilutions were made in duplicate.
(§4) A frozen cryo-vial of cells expressing the receptor of interest was thawed rapidly in a water-bath, transferred to pre-warmed assay media and spun at 240×g for 5 minutes. Cells were re-suspended in assay buffer at an optimized concentration (e.g., hGLP-1r and hGIPr cells at 0.5×10^5 cells/ml).
(§5) To this, 5 μL cell suspension was added and the plates incubated at room temperature for 30 minutes.
(§6) cAMP levels were measured using a commercially available cAMP dynamic 2 HTRF kit (Cisbio, Cat #62AM4PEJ), following the two step protocol as per manufacturer's recommendations. In brief; anti-cAMP cryptate (donor fluorophore) and cAMP-d2 (acceptor fluorophore) were made up separately by diluting each 1/20 in conjugate & lysis buffer provided in the kit. 5 μL anti-cAMP cryptate was added to all wells of the assay plate, and 5 μL cAMP-d2 added to all wells except non-specific binding (NSB) wells, to which conjugate and lysis buffer was added. […] Data was transformed to % Delta F as described in manufacturer's guidelines and then transformed to percent activation of maximal native agonist response and analysed by 4-parameter logistic fit to determine EC50 values.
(§7) We used unconstrained 4 parameter logistic fit of data, curve mid-point to determine EC50. This was tested on two occasions, not two batches.

[2] = biological target: T2, mouse GLP-1 receptor (mGLP-1r) (Mus musculus, UniProt O35659); assay: BSA-cAMP assay, cells expressing mouse GLP-1 receptor; settings: Batch 1; BSA-cAMP assay; read-out: mGLP1r cAMP activity EC50
T2 construct: expressed in transfected cells; host or cells: HEK293s or CHO cells
T2 sequence (O35659 22-463): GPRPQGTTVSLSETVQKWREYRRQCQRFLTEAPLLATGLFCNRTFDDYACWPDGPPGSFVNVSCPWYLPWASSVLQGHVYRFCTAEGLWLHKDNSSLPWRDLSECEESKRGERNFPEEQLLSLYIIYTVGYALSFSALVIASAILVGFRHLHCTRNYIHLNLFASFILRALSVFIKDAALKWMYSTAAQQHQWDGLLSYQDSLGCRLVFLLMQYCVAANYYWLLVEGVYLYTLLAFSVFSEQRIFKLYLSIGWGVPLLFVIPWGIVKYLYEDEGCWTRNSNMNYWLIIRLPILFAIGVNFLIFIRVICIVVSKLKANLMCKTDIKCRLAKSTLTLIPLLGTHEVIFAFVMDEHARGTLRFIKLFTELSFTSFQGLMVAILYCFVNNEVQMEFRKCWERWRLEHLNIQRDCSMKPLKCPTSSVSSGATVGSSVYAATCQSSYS
Experimental: as §1, §2, §3, §4, §5, §6, §7
(§8) In order to be able to carry out in vivo studies in rodents, IP088 was tested for potency against the mouse receptors mGIPr and mGLP-1r as well as the rat receptors rGIPr and rGLP-1r, using cells expressing the respective receptors in the cAMP assay described above.

[3] = biological target: T3, rat GLP-1 receptor (rGLP-1r) (Rattus norvegicus, UniProt P32301); assay: BSA-cAMP assay, cells expressing rat GLP-1 receptor; settings: Batch 1; BSA-cAMP assay; read-out: rGLP1r cAMP activity EC50
T3 construct: expressed in transfected cells; host or cells: HEK293s or CHO cells
T3 sequence (P32301 22-463): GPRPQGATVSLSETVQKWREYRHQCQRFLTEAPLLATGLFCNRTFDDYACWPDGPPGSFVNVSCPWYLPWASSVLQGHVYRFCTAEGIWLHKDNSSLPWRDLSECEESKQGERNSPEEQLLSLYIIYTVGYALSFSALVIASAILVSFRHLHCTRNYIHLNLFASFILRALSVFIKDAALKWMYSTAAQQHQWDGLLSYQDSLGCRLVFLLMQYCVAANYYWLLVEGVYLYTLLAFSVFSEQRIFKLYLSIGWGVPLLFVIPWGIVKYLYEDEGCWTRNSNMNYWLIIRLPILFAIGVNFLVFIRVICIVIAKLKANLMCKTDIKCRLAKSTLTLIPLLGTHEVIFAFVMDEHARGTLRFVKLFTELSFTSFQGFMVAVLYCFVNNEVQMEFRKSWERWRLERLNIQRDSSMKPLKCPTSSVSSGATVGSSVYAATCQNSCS
Experimental: as §1, §2, §3, §4, §5, §6, §7, §8

[4] = biological target: T4, human GIP receptor (hGIPr) (Homo sapiens, UniProt P48546); assay: BSA-cAMP assay, cells expressing human GIP receptor; settings: Batch 1; BSA-cAMP assay; read-out: hGIPr cAMP activity EC50
T4 construct: expressed in transfected cells
T4 sequence (P48546 22-466): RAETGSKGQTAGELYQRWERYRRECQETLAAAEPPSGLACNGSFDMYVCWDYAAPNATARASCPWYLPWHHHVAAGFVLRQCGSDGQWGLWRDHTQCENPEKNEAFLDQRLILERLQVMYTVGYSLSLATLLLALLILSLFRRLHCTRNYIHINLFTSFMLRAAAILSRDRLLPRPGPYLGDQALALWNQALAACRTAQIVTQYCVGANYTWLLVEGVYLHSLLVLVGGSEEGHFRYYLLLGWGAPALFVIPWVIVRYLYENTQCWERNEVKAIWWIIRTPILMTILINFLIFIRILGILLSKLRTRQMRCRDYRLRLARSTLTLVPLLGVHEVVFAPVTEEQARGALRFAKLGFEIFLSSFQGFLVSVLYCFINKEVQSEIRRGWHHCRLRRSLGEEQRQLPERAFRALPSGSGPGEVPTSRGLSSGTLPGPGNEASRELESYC
Experimental: For human GIPr, two different lines were used, shown as “hGIPr” and “hGIPr (C3)” in Table 11.
as §1, §2, §3, §4, §5, §6, §7

[5] = biological target: T5, mouse GIP receptor (mGIPr) (Mus musculus, UniProt Q0P543); assay: BSA-cAMP assay, cells expressing mouse GIP receptor; settings: Batch 1; BSA-cAMP assay; read-out: mGIPr cAMP activity EC50
T5 construct: expressed in transfected cells; host or cells: HEK293s or CHO cells
T5 sequence (Q0P543 19-460): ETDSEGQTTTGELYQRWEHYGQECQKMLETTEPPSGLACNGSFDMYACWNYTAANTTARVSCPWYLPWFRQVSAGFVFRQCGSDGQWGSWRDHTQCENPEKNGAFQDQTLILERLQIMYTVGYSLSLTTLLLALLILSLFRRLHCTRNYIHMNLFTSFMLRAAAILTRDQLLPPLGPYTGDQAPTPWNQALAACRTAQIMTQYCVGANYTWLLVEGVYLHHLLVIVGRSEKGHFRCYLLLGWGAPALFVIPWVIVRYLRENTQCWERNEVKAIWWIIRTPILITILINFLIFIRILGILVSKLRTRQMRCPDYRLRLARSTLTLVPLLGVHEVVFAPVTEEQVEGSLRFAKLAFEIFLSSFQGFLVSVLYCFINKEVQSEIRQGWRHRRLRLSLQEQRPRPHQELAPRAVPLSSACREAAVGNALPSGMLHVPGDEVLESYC
Experimental: as §1, §2, §3, §4, §5, §6, §7, §8

[6] = biological target: T6, human GLP-1 receptor (hGLP-1r) (Homo sapiens, UniProt P43220); assay: BSA-cAMP assay, cells expressing human GLP-1 receptor; settings: Batch 1; BSA-cAMP assay; read-out: hGLP1r cAMP activity EC50
T6 construct: expressed in transfected cells
Experimental: as §1, §2, §3, §4, §5, §6, §7

rat GIP receptor (rGIPr) = biological target: T7, rat GIP receptor (rGIPr) (Rattus norvegicus, UniProt P43219); assay: BSA-cAMP assay, cells expressing rat GIP receptor; settings: Batch 1; BSA-cAMP assay; read-out: rGIPr cAMP activity EC50
T7 construct: expressed in transfected cells; host or cells: HEK293s or CHO cells
T7 sequence (P43219 19-455): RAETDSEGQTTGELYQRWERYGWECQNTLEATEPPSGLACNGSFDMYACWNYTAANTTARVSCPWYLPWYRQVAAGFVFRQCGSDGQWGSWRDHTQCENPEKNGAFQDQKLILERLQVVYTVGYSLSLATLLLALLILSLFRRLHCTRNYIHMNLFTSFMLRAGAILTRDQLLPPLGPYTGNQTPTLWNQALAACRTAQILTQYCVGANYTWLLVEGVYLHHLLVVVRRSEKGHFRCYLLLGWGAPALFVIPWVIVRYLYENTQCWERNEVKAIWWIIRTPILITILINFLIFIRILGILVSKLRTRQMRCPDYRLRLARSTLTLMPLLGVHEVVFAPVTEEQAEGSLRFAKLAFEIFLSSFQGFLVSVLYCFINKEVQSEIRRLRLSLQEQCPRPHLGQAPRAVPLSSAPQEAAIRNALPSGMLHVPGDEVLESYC
Experimental: as §1, §2, §3, §4, §5, §6, §7, §8

T6 sequence (P43220 24-463): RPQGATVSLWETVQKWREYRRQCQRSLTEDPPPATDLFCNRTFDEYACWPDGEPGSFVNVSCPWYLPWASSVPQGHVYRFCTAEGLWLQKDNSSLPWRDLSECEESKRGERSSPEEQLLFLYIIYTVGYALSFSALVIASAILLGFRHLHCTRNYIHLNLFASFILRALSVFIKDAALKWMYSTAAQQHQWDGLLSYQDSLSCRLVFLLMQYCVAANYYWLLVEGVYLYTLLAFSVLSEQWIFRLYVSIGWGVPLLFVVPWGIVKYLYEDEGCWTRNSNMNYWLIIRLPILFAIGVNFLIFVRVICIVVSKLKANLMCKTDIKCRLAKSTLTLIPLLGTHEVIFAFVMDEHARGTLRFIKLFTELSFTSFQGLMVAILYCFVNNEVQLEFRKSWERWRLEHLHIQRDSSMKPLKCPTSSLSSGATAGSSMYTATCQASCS
T1 sequence (P47871 26-477): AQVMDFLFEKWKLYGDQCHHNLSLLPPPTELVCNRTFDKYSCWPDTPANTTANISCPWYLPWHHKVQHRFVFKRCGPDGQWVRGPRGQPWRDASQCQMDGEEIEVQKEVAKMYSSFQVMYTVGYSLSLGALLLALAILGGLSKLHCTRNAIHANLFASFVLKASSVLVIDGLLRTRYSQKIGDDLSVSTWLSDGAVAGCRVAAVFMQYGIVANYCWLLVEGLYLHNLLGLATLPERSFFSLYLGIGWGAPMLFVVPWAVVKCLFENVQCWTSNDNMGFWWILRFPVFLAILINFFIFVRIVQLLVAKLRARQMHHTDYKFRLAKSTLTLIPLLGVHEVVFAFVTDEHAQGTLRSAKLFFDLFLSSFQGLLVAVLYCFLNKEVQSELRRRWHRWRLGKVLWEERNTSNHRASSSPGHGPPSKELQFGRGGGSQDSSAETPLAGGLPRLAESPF

Substance	EC50 [1] [nM]	EC50 [2] [nM]	EC50 [3] [nM]	EC50 [4] [nM]	EC50 [5] [nM]	EC50 [6] [nM]	EC50 (rat GIP receptor (rGIPr)) [nM]
IP386 (YSEGTFISDYSIAMDKIHQQDFVNWLLAQKGGGGGSGGGGSGGGGSGGGGSACPPC)	540	> 16600	> 16600	0.0034	0.03	> 9130	0.0085
IP381: Fc fusion, IgG1-fusion, SEQ ID NO:377; agonist peptide YSEGTFTSDYSKLLEEEAVRLFIEYLLAGG (YSEGTFTSDYSKLLEEEAVRLFIEYLLAGGGGGGSGGGGSGGGGSGGGGSATHTCPPC)	18	0.73	0.027	0.0099	5.4	0.091	0.045
IP311 (YSEGTFISDYSIALAAAAIDDFVNWLLAGGGGGGGSGGGGSGGGGSGGGGSATHTCPPC)	> 2420	1500	61	0.074	0.95	670	0.43
IP407: Fc fusion, IgG1-TM, SEQ ID NO:384; agonist peptide YSEGTFTSDYSKLLEEEAIRLFIEWLLAGG (YSEGTFTSDYSKLLEEEAIRLFIEWLLAGGGGGGSGGGGSGGGGSGGGGSATHTCPPC)	> 163				2.3	0.25	
IP413: Fc fusion, IgG1-TM, SEQ ID NO:388; agonist peptide YSEGTFTSDYSKLLEEEASRLFIEWLLAGG (YSEGTFTSDYSKLLEEEASRLFIEWLLAGGGGGGSGGGGSGGGGSGGGGSATHTCPPC)	7.6	8.9	0.048		3.7	0.19	> 113
IP302 (YSEGTFISDYSIALAAAAQQDFVNWLLAGGGGGGGSGGGGSGGGGSGGGGSATHTCPPC)	1200	93	7	0.018	0.083	26	0.055
IP353 (YSEGTFTSDYAAAAEAAAAAAFAAWLAKAAGGGGGSGGGGSGGGGSGGGGSACPPC)	> 3210			1		20	
